Data as given in US20220048993A1 (published 2022).
Where a chain is given by its changes, count along the chain named. Numbers in names are those of the source. One block for each binder: values may come before it.

Experiments:
[1] = molecular target: T1, soluble cynomolgus FcRH5 protein fragment (cynomolgus monkey); assay: SPR, hIgG capture, 1:1 model
T1 chain: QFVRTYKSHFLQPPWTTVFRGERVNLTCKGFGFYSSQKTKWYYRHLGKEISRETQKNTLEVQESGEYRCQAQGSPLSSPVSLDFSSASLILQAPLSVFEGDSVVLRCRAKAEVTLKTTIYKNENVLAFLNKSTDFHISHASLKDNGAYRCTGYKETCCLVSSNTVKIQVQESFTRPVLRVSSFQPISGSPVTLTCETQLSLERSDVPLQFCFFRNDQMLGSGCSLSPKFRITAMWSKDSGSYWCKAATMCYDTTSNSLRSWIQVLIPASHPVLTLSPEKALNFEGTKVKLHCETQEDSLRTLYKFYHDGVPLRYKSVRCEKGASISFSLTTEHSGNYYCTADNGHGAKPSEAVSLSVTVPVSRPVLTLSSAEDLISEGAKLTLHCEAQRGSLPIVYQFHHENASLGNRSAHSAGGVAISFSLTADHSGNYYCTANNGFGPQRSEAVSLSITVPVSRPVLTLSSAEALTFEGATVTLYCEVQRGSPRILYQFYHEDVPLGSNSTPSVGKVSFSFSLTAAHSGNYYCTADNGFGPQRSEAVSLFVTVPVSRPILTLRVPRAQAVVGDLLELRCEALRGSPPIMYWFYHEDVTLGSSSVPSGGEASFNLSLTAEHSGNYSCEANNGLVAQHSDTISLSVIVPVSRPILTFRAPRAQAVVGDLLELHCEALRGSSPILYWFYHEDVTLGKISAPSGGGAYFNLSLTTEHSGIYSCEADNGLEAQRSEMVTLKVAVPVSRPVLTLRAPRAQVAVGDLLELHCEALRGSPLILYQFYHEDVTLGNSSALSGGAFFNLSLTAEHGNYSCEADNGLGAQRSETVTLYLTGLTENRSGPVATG

[2] = molecular target: T2, cynomolgus monkey FcRH5, full-length (cynomolgus monkey); assay: FACS, SVT2 cells, TDB 3 µg/ml
T2 construct: also called cyno FcRH5; Cynomolgus FcRH5
T2 chain: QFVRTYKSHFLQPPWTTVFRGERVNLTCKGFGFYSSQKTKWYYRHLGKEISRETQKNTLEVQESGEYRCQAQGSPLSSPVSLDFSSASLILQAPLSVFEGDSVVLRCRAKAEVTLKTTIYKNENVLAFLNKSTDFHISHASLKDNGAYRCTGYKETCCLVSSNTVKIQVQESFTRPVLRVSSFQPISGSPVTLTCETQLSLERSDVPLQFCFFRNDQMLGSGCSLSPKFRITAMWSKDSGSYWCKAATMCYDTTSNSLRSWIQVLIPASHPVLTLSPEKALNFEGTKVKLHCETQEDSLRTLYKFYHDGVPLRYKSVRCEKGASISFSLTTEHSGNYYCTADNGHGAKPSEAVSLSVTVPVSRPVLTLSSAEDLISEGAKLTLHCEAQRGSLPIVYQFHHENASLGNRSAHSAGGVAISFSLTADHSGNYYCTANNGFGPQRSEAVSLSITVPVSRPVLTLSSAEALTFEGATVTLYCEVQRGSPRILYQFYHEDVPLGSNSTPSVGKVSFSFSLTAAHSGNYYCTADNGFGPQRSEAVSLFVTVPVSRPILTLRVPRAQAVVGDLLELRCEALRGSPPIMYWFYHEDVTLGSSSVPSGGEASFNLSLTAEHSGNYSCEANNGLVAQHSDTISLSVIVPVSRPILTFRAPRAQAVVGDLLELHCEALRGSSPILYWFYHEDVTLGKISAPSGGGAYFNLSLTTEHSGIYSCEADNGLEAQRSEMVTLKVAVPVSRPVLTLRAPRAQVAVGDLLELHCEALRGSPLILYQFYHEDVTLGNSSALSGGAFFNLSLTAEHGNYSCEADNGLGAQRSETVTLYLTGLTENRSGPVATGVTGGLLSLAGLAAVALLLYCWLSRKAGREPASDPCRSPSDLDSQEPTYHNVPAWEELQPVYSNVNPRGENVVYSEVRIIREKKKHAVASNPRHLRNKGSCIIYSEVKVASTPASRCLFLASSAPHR
Description: Human FcRH5, cyno FcRH5, human FcRH1, FcRH2, FcRH3, and FcRH4 transfected mouse SVT2 cells were used to test binding and cross-reactivity of FcRH5 TDBs. The method was carried out as follows. Cultured SVT2 cells were lifted using non-enzyme cell dissociation buffer (Sigma, #C5914). 1×10⁵ cells were suspended in 100 μL and incubated with FcRH5 TDBs at 3 μg/ml. Cells were then washed with FACS buffer (PBS, 1% BSA, 2 mM EDTA) and incubated with goat-anti-human Fc PE (Jackson Immunoresearch, #109-116-170) at a 1:100 dilution. Cells were washed twice with FACS buffer before flow cytometry analysis was carried out on a FACSCalibur.

[3] = molecular target: T1, soluble cynomolgus FcRH5 protein …; assay: BIACORE (FIG. 15)
human FcRH5, full-length = molecular target: T3, human FcRH5, full-length (human, UniProt Q96RD9 16-977); assay: cell-based or functional assay
T3 sequence: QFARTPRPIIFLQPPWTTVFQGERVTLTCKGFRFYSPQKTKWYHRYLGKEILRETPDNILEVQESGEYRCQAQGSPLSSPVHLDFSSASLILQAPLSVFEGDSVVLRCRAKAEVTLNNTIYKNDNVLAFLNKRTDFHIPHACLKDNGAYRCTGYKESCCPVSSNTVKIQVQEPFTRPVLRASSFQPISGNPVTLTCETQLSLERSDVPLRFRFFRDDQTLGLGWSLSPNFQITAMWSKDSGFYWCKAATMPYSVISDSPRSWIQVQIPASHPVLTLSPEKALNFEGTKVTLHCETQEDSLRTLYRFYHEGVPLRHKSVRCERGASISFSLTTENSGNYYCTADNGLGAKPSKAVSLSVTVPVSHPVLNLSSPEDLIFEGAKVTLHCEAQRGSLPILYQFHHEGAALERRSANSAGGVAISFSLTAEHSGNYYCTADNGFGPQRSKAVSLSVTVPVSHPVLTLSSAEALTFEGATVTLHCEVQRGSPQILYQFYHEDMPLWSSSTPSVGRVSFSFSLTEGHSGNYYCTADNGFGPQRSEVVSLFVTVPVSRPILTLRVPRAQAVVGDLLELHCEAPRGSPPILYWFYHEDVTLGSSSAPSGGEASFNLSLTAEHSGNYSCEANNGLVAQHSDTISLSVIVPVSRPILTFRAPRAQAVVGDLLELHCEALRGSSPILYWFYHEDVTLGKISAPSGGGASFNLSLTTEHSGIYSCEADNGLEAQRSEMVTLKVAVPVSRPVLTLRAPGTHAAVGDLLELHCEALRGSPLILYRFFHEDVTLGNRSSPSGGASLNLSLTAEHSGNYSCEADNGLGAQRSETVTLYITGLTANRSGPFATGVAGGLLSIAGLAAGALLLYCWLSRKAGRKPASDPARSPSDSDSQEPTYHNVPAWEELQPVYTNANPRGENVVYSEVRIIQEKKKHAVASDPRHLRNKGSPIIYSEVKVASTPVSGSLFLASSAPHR

[4] = molecular target: T2, cynomolgus monkey FcRH5, full-length; assay: flow cytometry, SVT2-cyno FcRH5 cells
[5] = molecular target: T1, soluble cynomolgus FcRH5 protein …; assay: BIACORE, hIgG capture, 1:1 model, monovalent
[6] = molecular target: T4, recombinant cynomolgus E11 protein (cynomolgus monkey); assay: SPR, mIgG2a captured, monovalent
T4 chain: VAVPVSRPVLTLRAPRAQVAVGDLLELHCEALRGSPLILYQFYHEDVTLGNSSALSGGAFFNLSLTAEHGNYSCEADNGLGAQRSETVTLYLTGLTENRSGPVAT

[7] = molecular target: T4, recombinant cynomolgus E11 protein; assay: SPR, mIgG2a captured, monovalent

B1: 1G7.v1.4/38E4.v1 TDB (bispecific antibody, V domains shown)
VH 1: EVQLVESGPGLVKPSETLSLTCTVSGFSLTRFGVHWVRQPPGKGLEWLGVIWRGGSTDYNAAFMSRLTISKDNSKNQVSLKLSSVTAADTAVYYCSNHYYGSSDYALDNWGQGTLVTVSS
VL 1: DIQMTQSPSSLSASVGDRVTITCKASQDVRNLVVWFQQKPGKAPKLLIYSGSYRYSGVPSRFSGSGSGTDFTLTISSLQPEDFATYYCQQHYSPPYTFGQGTKVEIK
VH 2: EVQLVQSGAEVKKPGASVKVSCKASGFTFTSYYIHWVRQAPGQGLEWIGWIYPENDNTKYNEKFKDRVTITADTSTSTAYLELSSLRSEDTAVYYCARDGYSRYYFDYWGQGTLVTVSS
VL 2: DIVMTQSPDSLAVSLGERATINCKSSQSLLNSRTRKNYLAWYQQKPGQSPKLLIYWTSTRKSGVPDRFSGSGSGTDFTLTISSLQAEDVAVYYCKQSFILRTFGQGTKVEIK
notes: knob-into-hole full-length TDB; also called 1G7.v1.4 TDB
Kd [1]: 6.3 nM
koff [1]: 0.0008 s⁻¹
kon [1]: 100000 M⁻¹ s⁻¹
binding result [2]: binds

B2: hu1G7.v93/38E4.v1 TDB (bispecific antibody, V domains shown)
VH 1: B1 VH 1 with L29T, M64V, S103P
VL 1: B1 VL 1 with R30S
VH 2: B1 VH 2
VL 2: B1 VL 2
notes: knob-into-hole full-length TDB; also called 1G7.v93 TDB
Kd [3]: 8.1 nM

B4: 1G7.v85/38E4.v1 TDB (bispecific antibody, V domains shown)
VH 1: B1 VH 1 with M64V
VL 1: B1 VL 1
VH 2: B1 VH 2
VL 2: B1 VL 2
notes: knob-into-hole full-length TDB; also called 1G7.v85 TDB; FcRH5 TDB
Kd [3]: 7.8 nM
killing of MOLP-2 cells, EC50 (human FcRH5, full-length): 0.058 nM
killing of SVT2-FcRH5 cells, IC50, in DMSO (human FcRH5, full-length): 0.006 nM
killing of SVT2-FcRH5 cells, IC50, in buffer (human FcRH5, full-length): 0.007 nM
killing of SVT2-FcRH5 cells, IC50, with 0.1 µM dexamethasone (human FcRH5, full-length): 0.016 nM
killing of SVT2-FcRH5 cells, IC50, with 1 µM dexamethasone (human FcRH5, full-length): 0.025 nM
killing of human bone marrow plasma cells, EC50 (human FcRH5, full-length): 0.085 to 0.18 nM
Kd [1]: 6.8 nM
koff [1]: 0.0008 s⁻¹
kon [1]: 100000 M⁻¹ s⁻¹
binding result [4]: binds
Kd [5]: 6.76 nM

B6: 17B1 (antibody, mouse IgG2a, V domains shown)
VH: QVQLQQSGPELVRPGVSVKISCKGSGYTFTHYAMHWVKQSHTKSLEWIGMISSSSGNTNFNQKFMDKATMTVDKSSTTAYLELARLTFGDSAIYYCARWSYYALFDYWGQGTTVTVSS
VL: ENVLTQSPAIMSASPGEKVTMTCSADSSVDYIHWYQQKSNTSPKLWIYDTSKLASGVPGRFSGSGSGNSYSLTISSMEAEDFATYYCFQGSGYPLTFGSGTKLELK
notes: mouse mAb, Campaign C; recombinant murine IgG2a for BIACORE
Kd [6]: 27 nM

B7: 15G8 (antibody, mouse IgG2a, V domains shown)
VH: EVQLQQSGPELVKPGASVKMSCKASGYTFTNYVIHWMKQKPGQGLEWIGYISPYNDYTKYNEKFEGKATLTSDKSSNTAYMELSSLTSEDSAVYYCARRDYYGSSDYWGQGTTLTVSS
VL: QIVLTQSPAIMSASPGEKVTMTCSASSSVDYMHWYQQKSGTSPKKWIYDTSKLASGVPARFSGSGSGTSYSLTIGSMEAEDAATYYCQQWSSNPPTFGGGTKLEIK
notes: mouse mAb, Campaign C; recombinant murine IgG2a for BIACORE; also called mAb 15G8
KD difference between human and cynomolgus E11 domains [7]: ~20 fold
Kd [6]: 9.1 nM

Continued, values first:

Kd [1]: 7.2 nM
koff [1]: 0.001 s⁻¹
kon [1]: 100000 M⁻¹ s⁻¹
B3: hu1G7.v85 (hIgG1) (antibody, V domains shown)
VH: B1 VH 1 with M64V
VL: B1 VL 1
notes: bivalent human IgG1; also called hu1G7.v1.4.M64V

Kd [1]: 7.7 nM
koff [1]: 0.001 s⁻¹
kon [1]: 100000 M⁻¹ s⁻¹
B5: hu1G7.v1.4 (hIgG1) (antibody, V domains shown)
VH: B1 VH 1
VL: B1 VL 1
notes: human IgG1
